Data published in the supplement of paper PMC10724198.
± gives the standard deviation of the averaged measurements.

system: Saccharomyces cerevisiae; test: protein stability index of tFT-peptide fusion (C-terminal peptide) (PSI (0-1 scale)); higher = more stable (slower turnover); conditions: genetic background: wild type; temperature: 30 C
Method: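 Multiplexed protein stability (MPS) profiling in S. cerevisiae. Random 12-aa peptides (tFT-X12 library) are fused to the C-terminus of a sfGFP-mCherry tandem fluorescent timer, after mCherry and a GGGS linker. Cells are FACS-sorted into 8 mCherry/sfGFP bins and deep-sequenced. The protein stability index (PSI) is the read-weighted bin average, scaled from 0 (unstable) to 1 (stable). Only peptides with >10 reads are reported; cells were grown at 30 °C in SC-His with glucose.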
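Also: PSI is a weighted mean of sequencing reads over stability bins, variants kept only with over 10 reads, mCherry proximal and sfGFP distal, peptide attached via GGGS linker.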

Row | Sequence | protein stability index
1 | FGGRGRVASRLV | 0.763 ± 0.086
2 | FGIDVRPRPSQS | 0.698 ± 0.12
3 | FGRWVVVYRGLD | 0.625 ± 0.037
4 | FGSPFPASRFTT | 0.752 ± 0.082
5 | FGVDGVGVVVGY | 0.669 ± 0.0086
6 | FGVGGRWVVPGA | 0.733 ± 0.016
7 | FGVRTLTFISRT | 0.637 ± 0.0081
8 | FGWFDIKDSTNS | 0.7177 ± 0.0048
9 | FHARVEKQFMVM | 0.489 ± 0.031
10 | FHMPRSSPFLTG | 0.74 ± 0.054
11 | FIGWFSLMSCSV | 0.604 ± 0.026
12 | FISPSPLPPYSP | 0.665 ± 0.059
13 | FITLHGLLSRPC | 0.626 ± 0.077
14 | FITRPYKNIKNR | 0.702 ± 0.031
15 | FKRPQFFSAFFP | 0.612 ± 0.011
16 | FKVARGVHCGEG | 0.6662 ± 0.0037
17 | FLFCSYHSPLSF | 0.7 ± 0.036
18 | FLFLSFLSSSPS | 0.745 ± 0.0088
19 | FLFLYIPFSPPR | 0.62 ± 0.02
20 | FLFSDLVCSSVF | 0.704 ± 0.027
21 | FLGAELRRLGSL | 0.703 ± 0.071
22 | FLHLGGEWGVEG | 0.683 ± 0.041
23 | FLHLTSSTPLSR | 0.794 ± 0.17
24 | FLHPPPSALVLP | 0.726 ± 0.03
25 | FLHSERTLCFIS | 0.537 ± 0.052

Row | Sequence | protein stability index
26 | FLLFLSSAPPAT | 0.655 ± 0.0084
27 | FLLHHVSRSPSA | 0.692 ± 0.014
28 | FLLPRFDSAFPL | 0.684 ± 0.031
29 | FLLVLPLSGLIV | 0.528 ± 0.016
30 | FLPHPSPDPLPP | 0.588 ± 0.12
31 | FLPPYSLPTPPF | 0.699 ± 0.03
32 | FLRLGLLQTFSP | 0.677 ± 0.04
33 | FLRPALACDVYN | 0.737 ± 0.05
34 | FLSLSLFPFSSL | 0.698 ± 0.024
35 | FLSRLGLVGWWG | 0.643 ± 0.036
36 | FLSTGIGKGVFL | 0.694 ± 0.035
37 | FLTAGRLYDGRV | 0.6489 ± 0.0032
38 | FLVEPSGRSATW | 0.741 ± 0.16
39 | FLWAPRWFCVGH | 0.651 ± 0.041
40 | FMFELSPVDEWA | 0.791 ± 0.043
41 | FMVIRVGGWGVL | 0.646 ± 0.094
42 | FPAPFLRVSPLW | 0.644 ± 0.048
43 | FPASLDAVTRPP | 0.722 ± 0.011
44 | FPASPQAPPPLP | 0.65377 ± 0.00019
45 | FPATLPPSYSLI | 0.643 ± 0.017
46 | FPCRSPKLYPPL | 0.655 ± 0.011
47 | FPDTRSLPLPPG | 0.687 ± 0.011
48 | FPFSDFVFLFCF | 0.57 ± 0.011
49 | FPLPLCHSPAPP | 0.606 ± 0.027
50 | FPLPPLPPVPPP | 0.632 ± 0.059

Row | Sequence | protein stability index
51 | FPPPLPLSPPPP | 0.746 ± 0.085
52 | FPRLYHPNIKLP | 0.716 ± 0.13
53 | FPVTAPPRPFLF | 0.639 ± 0.014
54 | FPWFYPNHLEVP | 0.698 ± 0.063
55 | FQAPGGEIMSPS | 0.647 ± 0.012
56 | FQPPARATFLPV | 0.668 ± 0.031
57 | FRCGLDFRWYVI | 0.62 ± 0.012
58 | FRCSLLGGYTLE | 0.737 ± 0.092
59 | FRFSSTGRSFVS | 0.6917 ± 0.0029
60 | FRGPRSFRGVVW | 0.757 ± 0.08
61 | FRICSLTLSLSI | 0.5517 ± 0.0048
62 | FRISWLRVKGRG | 0.676 ± 0.035
63 | FRKTDYMVHNGI | 0.664 ± 0.015
64 | FRLNSYQNGSRV | 0.682 ± 0.043
65 | FRLQQGCSRHVG | 0.671 ± 0.015
66 | FRPCLRCLVSPF | 0.6358 ± 0.0063
67 | FRPLWLPSGSAC | 0.611 ± 0.019
68 | FRRCLCSLSLTS | 0.631 ± 0.012
69 | FRRLCRPVWSAR | 0.6749 ± 0.0038
70 | FRYLAVSPFGGL | 0.749 ± 0.057
71 | FSAPLPPARSPS | 0.798 ± 0.11
72 | FSAPPPPSPPLS | 0.721 ± 0.053
73 | FSASSSLSPFPL | 0.707 ± 0.052
74 | FSFCQLSLASFP | 0.571 ± 0.01
75 | FSFPAPRGLLWV | 0.547 ± 0.027

Row | Sequence | protein stability index
76 | FSGSSCSSPFCF | 0.632 ± 0.033
77 | FSKTYTIMLITI | 0.538 ± 0.0077
78 | FSLLCGPGLRGF | 0.72 ± 0.02
79 | FSPGYPMAFSLR | 0.74 ± 0.0075
80 | FSPLLQSPLLAP | 0.692 ± 0.0089
81 | FSQLVQPSSFTS | 0.7176 ± 0.004
82 | FSRGRAVRVRRT | 0.728 ± 0.21
83 | FSSLFLSLLCPP | 0.727 ± 0.073
84 | FSSYDLISFVLV | 0.538 ± 0.0099
85 | FTISHWFSGDGE | 0.705 ± 0.015
86 | FTPLFSPVLLLP | 0.72 ± 0.12
87 | FTSPNGVRVCFH | 0.843 ± 0.02
88 | FVAGVGPLWGRR | 0.661 ± 0.031
89 | FVALCHCVRISR | 0.697 ± 0.013
90 | FVGCVNIFLSWG | 0.51 ± 0.019
91 | FVGSSFELRLPG | 0.692 ± 0.057
92 | FVGWVAMGGSVV | 0.731 ± 0.024
93 | FVLPSPRPPSMT | 0.704 ± 0.0078
94 | FVVGTFGHRRGR | 0.694 ± 0.019
95 | FWEGETVPTSEP | 0.788 ± 0.045
96 | FWEIRSGSNHRH | 0.713 ± 0.028
97 | FWGVAPSDRVSK | 0.697 ± 0.0078
98 | FWVGGGVFGVRV | 0.747 ± 0.015
